Reference: publication PMC5404824, “Engineering Nucleotide Specificity of Succinyl-CoA Synthetase in Blastocystis: The Emerging Role of Gatekeeper Residues” (Biochemistry, 2016)

Substrate: Nc1ncnc2c1ncn2[C@@H]1O[C@H](COP(=O)(O)OP(=O)(O)OP(=O)(O)O)[C@@H](O)[C@H]1O
Test: purified protein
Conditions: 129 μM CoA, 10 mM succinate, 50 mM KCl, 10 mM MgCl2, 50 mM Tris-HCl pH 7.4, 30 nM enzyme

B1: Blastocystis SCS (succinyl-CoA synthetase, SCSα + SCSβ) (Blastocystis sp. ATCC 50177/Nand II) (protein)
chain: LNIHEWQSKQLIQKYGGRAQSGEVAFSPERSRDIAKKLWNQFPGCKFVVKAQVLAGGRGKGHWEHGMQGGVKLAKTPEEVYEIANEMIGHKLITKQTGAKGINCNKVMVCGAVKILKEFYLSILLDRAMGCPVIIATSQGGMGIEEVAQKCPECLFKVPISVKNGPTNEQLVKLAKDLGLEGDLVQDCVDNVKALYQVFDKCDSTMVEINPLGVIETPTDEKVICCLDAKIAFDKDAAFRQKEIFALRDKSREDPRDVRASLADLNYVGLDGDIGCMVNGAGLAMATMDTINYFGGSAANFLDVGGNAKKEQITEALRILNSDKHVKSILINIFGGIMRCDVVAQGIMDAVREMKLDLPLVVRLEGTNVAKGKEILKSSGLNIIPANDLGDAAKKAVASLKH
For B1, which Km is on record?
Its Km is 145 ± 47 µM.

What about the kcat of the same protein?
The kcat was 0.0139 s⁻¹.

And the kcat/Km?
Its kcat/Km is 96 M⁻¹ s⁻¹.
